Assay results published in patent publication US20200216522A1 (DENALI THERAPEUTICS, published 2020).

Biological target: T1, full-length human Tau (Tau441; 2N4R), recombinant (human, UniProt P10636 1-758)
T1 construct: made in E. coli, His6-Smt3 tag removed; biotinylated through amines for Octet and phage work; also called r-Tau; recombinant Tau
Test: SPR Biacore
Protocol: IgG was purified with protein A affinity chromatography. The affinity of each hulC7 IgG variant for r-Tau was determined by surface plasmon resonance using a Biacore™ T200 instrument. Biacore™ Series S CM5 sensor chips were immobilized with monoclonal mouse anti-human IgG (Fc) antibody (Human antibody capture kit from GE Healthcare). Serial 3-fold dilutions of each hulC7 variant were injected at a flow rate of […]. Each sample was analyzed with 3-minute association and 10-minute dissociation. After each injection, the chip was regenerated using 3 M MgCl₂. Binding response was corrected by subtracting the RU from a flow cell capturing an irrelevant IgG at similar density. A 1:1 Languir model of simultaneous fitting of kₒₙ and koff was used for kinetics analysis.
A further round of affinity maturation was performed by mutating certain amino acids in selected CDR-H1, CDR-L1, and CDR-L3 sequences from Table 9A, as well as the sequence of CDR-H2 (SEQ ID NO:23) of hulC7.v2. Sequence changes were identified in each CDR (Table 9B). Binding affinities were evaluated using Biacore™ (Table 10B).

T1 sequence (P10636 other isoform, or with tags, fused parts or gaps limits assumed): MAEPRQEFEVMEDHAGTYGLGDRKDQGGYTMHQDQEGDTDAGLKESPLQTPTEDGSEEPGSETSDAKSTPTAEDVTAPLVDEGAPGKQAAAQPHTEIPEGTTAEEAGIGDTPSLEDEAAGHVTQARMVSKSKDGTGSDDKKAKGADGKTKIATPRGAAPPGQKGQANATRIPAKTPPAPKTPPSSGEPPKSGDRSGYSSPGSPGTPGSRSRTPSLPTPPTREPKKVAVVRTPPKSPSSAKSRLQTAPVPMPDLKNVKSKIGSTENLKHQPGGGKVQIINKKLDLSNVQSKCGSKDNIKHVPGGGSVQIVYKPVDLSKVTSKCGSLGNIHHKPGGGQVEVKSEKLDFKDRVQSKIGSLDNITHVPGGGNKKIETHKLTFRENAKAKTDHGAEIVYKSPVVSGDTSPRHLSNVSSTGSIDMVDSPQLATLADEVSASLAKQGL

Row | Kd | koff | kon | Binder
1 | 1.3 nM | 0.000183 s⁻¹ | 141000 M⁻¹ s⁻¹ | Clone with H1_2-1 (antibody, V domains shown, based on hu1C7.v2) VH: EVQLLESGGGLVQPGGSLRLSCAASGFTFSSVGTSWVRQAPGKGLEWVASISGDGGSYIHYADSVKGRFTISRDNSKNTLYLQMNSLRAEDTAVYYCARLPYWGQGTLVTVSS VL: DIVMTQSPDSLAVSLGERATINCKSSQSLLNSGNQKNYLTWYQQKPGQPPKLLIYWASTRESGVPDRFSGSGSGTDFTLTISSLQAEDVAVYYCQQYNSYPLTFGQGTKVEIKR
2 | 9.11 nM | 0.00378 s⁻¹ | 415000 M⁻¹ s⁻¹ | Clone with H2_2 (antibody, V domains shown, based on hu1C7.v2) VH: EVQLLESGGGLVQPGGSLRLSCAASGFTFSSYGMSWVRQAPGKGLEWVASISGTGGSYIHYADSVKGRFTISRDNSKNTLYLQMNSLRAEDTAVYYCARLPYWGQGTLVTVSS VL: DIVMTQSPDSLAVSLGERATINCKSSQSLLNSGNQKNYLTWYQQKPGQPPKLLIYWASTRESGVPDRFSGSGSGTDFTLTISSLQAEDVAVYYCQQYNSYPLTFGQGTKVEIKR
3 | 0.665 nM | 0.00078 s⁻¹ | 1.17e+06 M⁻¹ s⁻¹ | Clone with L1_6 (antibody, V domains shown, based on hu1C7.v2) VH: EVQLLESGGGLVQPGGSLRLSCAASGFTFSSYGMSWVRQAPGKGLEWVASISGDGGSYIHYADSVKGRFTISRDNSKNTLYLQMNSLRAEDTAVYYCARLPYWGQGTLVTVSS VL: DIVMTQSPDSLAVSLGERATINCKSSQSLLQSGNQKNYLTWYQQKPGQPPKLLIYWASTRESGVPDRFSGSGSGTDFTLTISSLQAEDVAVYYCQQYNSYPLTFGQGTKVEIKR
4 | 1.39 nM | 0.000885 s⁻¹ | 636000 M⁻¹ s⁻¹ | Clone with L1_5 (antibody, V domains shown, based on hu1C7.v2) VH: EVQLLESGGGLVQPGGSLRLSCAASGFTFSSYGMSWVRQAPGKGLEWVASISGDGGSYIHYADSVKGRFTISRDNSKNTLYLQMNSLRAEDTAVYYCARLPYWGQGTLVTVSS VL: DIVMTQSPDSLAVSLGERATINCKSSQSLLSSGNQKNYLTWYQQKPGQPPKLLIYWASTRESGVPDRFSGSGSGTDFTLTISSLQAEDVAVYYCQQYNSYPLTFGQGTKVEIKR
5 | 6.4 nM | 0.00309 s⁻¹ | 484000 M⁻¹ s⁻¹ | Clone with H2_4 (antibody, V domains shown, based on hu1C7.v2) VH: EVQLLESGGGLVQPGGSLRLSCAASGFTFSSYGMSWVRQAPGKGLEWVASISGDAGSYIHYADSVKGRFTISRDNSKNTLYLQMNSLRAEDTAVYYCARLPYWGQGTLVTVSS VL: DIVMTQSPDSLAVSLGERATINCKSSQSLLNSGNQKNYLTWYQQKPGQPPKLLIYWASTRESGVPDRFSGSGSGTDFTLTISSLQAEDVAVYYCQQYNSYPLTFGQGTKVEIKR
6 | 3.79 nM | 0.00175 s⁻¹ | 462000 M⁻¹ s⁻¹ | Clone with H2_6 (antibody, V domains shown, based on hu1C7.v2) VH: not shown VL: DIVMTQSPDSLAVSLGERATINCKSSQSLLNSGNQKNYLTWYQQKPGQPPKLLIYWASTRESGVPDRFSGSGSGTDFTLTISSLQAEDVAVYYCQQYNSYPLTFGQGTKVEIKR
7 | 1.41 nM | 0.000151 s⁻¹ | 107000 M⁻¹ s⁻¹ | Clone with H1_2-4 (antibody, V domains shown, based on hu1C7.v2) VH: EVQLLESGGGLVQPGGSLRLSCAASGFTFSLVGTSWVRQAPGKGLEWVASISGDGGSYIHYADSVKGRFTISRDNSKNTLYLQMNSLRAEDTAVYYCARLPYWGQGTLVTVSS VL: DIVMTQSPDSLAVSLGERATINCKSSQSLLNSGNQKNYLTWYQQKPGQPPKLLIYWASTRESGVPDRFSGSGSGTDFTLTISSLQAEDVAVYYCQQYNSYPLTFGQGTKVEIKR
8 | 0.416 nM | 0.000128 s⁻¹ | 308000 M⁻¹ s⁻¹ | Clone with H1_4-2 (antibody, V domains shown, based on hu1C7.v2) VH: EVQLLESGGGLVQPGGSLRLSCAASGFQFSGPGMSWVRQAPGKGLEWVASISGDGGSYIHYADSVKGRFTISRDNSKNTLYLQMNSLRAEDTAVYYCARLPYWGQGTLVTVSS VL: DIVMTQSPDSLAVSLGERATINCKSSQSLLNSGNQKNYLTWYQQKPGQPPKLLIYWASTRESGVPDRFSGSGSGTDFTLTISSLQAEDVAVYYCQQYNSYPLTFGQGTKVEIKR
9 | 0.502 nM | 0.000203 s⁻¹ | 404000 M⁻¹ s⁻¹ | Clone with H1_4-3 (antibody, V domains shown, based on hu1C7.v2) VH: EVQLLESGGGLVQPGGSLRLSCAASGFMFSGPGMSWVRQAPGKGLEWVASISGDGGSYIHYADSVKGRFTISRDNSKNTLYLQMNSLRAEDTAVYYCARLPYWGQGTLVTVSS VL: DIVMTQSPDSLAVSLGERATINCKSSQSLLNSGNQKNYLTWYQQKPGQPPKLLIYWASTRESGVPDRFSGSGSGTDFTLTISSLQAEDVAVYYCQQYNSYPLTFGQGTKVEIKR
10 | 9.68 nM | 0.00408 s⁻¹ | 422000 M⁻¹ s⁻¹ | Clone with H2_3 (antibody, V domains shown, based on hu1C7.v2) VH: EVQLLESGGGLVQPGGSLRLSCAASGFTFSSYGMSWVRQAPGKGLEWVASISGSGGSYIHYADSVKGRFTISRDNSKNTLYLQMNSLRAEDTAVYYCARLPYWGQGTLVTVSS VL: DIVMTQSPDSLAVSLGERATINCKSSQSLLNSGNQKNYLTWYQQKPGQPPKLLIYWASTRESGVPDRFSGSGSGTDFTLTISSLQAEDVAVYYCQQYNSYPLTFGQGTKVEIKR
11 | 0.577 nM | 0.000662 s⁻¹ | 1.15e+06 M⁻¹ s⁻¹ | Clone with L1_4 (antibody, V domains shown, based on hu1C7.v2) VH: EVQLLESGGGLVQPGGSLRLSCAASGFTFSSYGMSWVRQAPGKGLEWVASISGDGGSYIHYADSVKGRFTISRDNSKNTLYLQMNSLRAEDTAVYYCARLPYWGQGTLVTVSS VL: not shown
12 | 3.81 nM | 0.00126 s⁻¹ | 331000 M⁻¹ s⁻¹ | Clone with H1_4-4 (antibody, V domains shown, based on hu1C7.v2) VH: EVQLLESGGGLVQPGGSLRLSCAASGFRFSSPGMSWVRQAPGKGLEWVASISGDGGSYIHYADSVKGRFTISRDNSKNTLYLQMNSLRAEDTAVYYCARLPYWGQGTLVTVSS VL: DIVMTQSPDSLAVSLGERATINCKSSQSLLNSGNQKNYLTWYQQKPGQPPKLLIYWASTRESGVPDRFSGSGSGTDFTLTISSLQAEDVAVYYCQQYNSYPLTFGQGTKVEIKR
13 | 0.759 nM | 9.71e-05 s⁻¹ | 128000 M⁻¹ s⁻¹ | Clone with H1_2-2 (antibody, V domains shown, based on hu1C7.v2) VH: EVQLLESGGGLVQPGGSLRLSCAASGFTFSMVGTSWVRQAPGKGLEWVASISGDGGSYIHYADSVKGRFTISRDNSKNTLYLQMNSLRAEDTAVYYCARLPYWGQGTLVTVSS VL: DIVMTQSPDSLAVSLGERATINCKSSQSLLNSGNQKNYLTWYQQKPGQPPKLLIYWASTRESGVPDRFSGSGSGTDFTLTISSLQAEDVAVYYCQQYNSYPLTFGQGTKVEIKR
14 | 0.578 nM | 0.000144 s⁻¹ | 249000 M⁻¹ s⁻¹ | Clone with H1_2-5 (antibody, V domains shown, based on hu1C7.v2) VH: EVQLLESGGGLVQPGGSLRLSCAASGFTFSKVGTSWVRQAPGKGLEWVASISGDGGSYIHYADSVKGRFTISRDNSKNTLYLQMNSLRAEDTAVYYCARLPYWGQGTLVTVSS VL: DIVMTQSPDSLAVSLGERATINCKSSQSLLNSGNQKNYLTWYQQKPGQPPKLLIYWASTRESGVPDRFSGSGSGTDFTLTISSLQAEDVAVYYCQQYNSYPLTFGQGTKVEIKR
15 | 0.477 nM | 9.39e-05 s⁻¹ | 197000 M⁻¹ s⁻¹ | Clone with H1_2-3 (antibody, V domains shown, based on hu1C7.v2) VH: EVQLLESGGGLVQPGGSLRLSCAASGFTFSQVGTSWVRQAPGKGLEWVASISGDGGSYIHYADSVKGRFTISRDNSKNTLYLQMNSLRAEDTAVYYCARLPYWGQGTLVTVSS VL: DIVMTQSPDSLAVSLGERATINCKSSQSLLNSGNQKNYLTWYQQKPGQPPKLLIYWASTRESGVPDRFSGSGSGTDFTLTISSLQAEDVAVYYCQQYNSYPLTFGQGTKVEIKR
16 | 3.79 nM | 0.00176 s⁻¹ | 465000 M⁻¹ s⁻¹ | Clone with H2_5 (antibody, V domains shown, based on hu1C7.v2) VH: EVQLLESGGGLVQPGGSLRLSCAASGFTFSSYGMSWVRQAPGKGLEWVASISGDGGSYIHYASSVKGRFTISRDNSKNTLYLQMNSLRAEDTAVYYCARLPYWGQGTLVTVSS VL: DIVMTQSPDSLAVSLGERATINCKSSQSLLNSGNQKNYLTWYQQKPGQPPKLLIYWASTRESGVPDRFSGSGSGTDFTLTISSLQAEDVAVYYCQQYNSYPLTFGQGTKVEIKR
17 | 0.591 nM | 0.000163 s⁻¹ | 276000 M⁻¹ s⁻¹ | Clone with H1_4-5 (antibody, V domains shown, based on hu1C7.v2) VH: EVQLLESGGGLVQPGGSLRLSCAASGFRFSGYGMSWVRQAPGKGLEWVASISGDGGSYIHYADSVKGRFTISRDNSKNTLYLQMNSLRAEDTAVYYCARLPYWGQGTLVTVSS VL: DIVMTQSPDSLAVSLGERATINCKSSQSLLNSGNQKNYLTWYQQKPGQPPKLLIYWASTRESGVPDRFSGSGSGTDFTLTISSLQAEDVAVYYCQQYNSYPLTFGQGTKVEIKR
18 | 0.837 nM | 0.000144 s⁻¹ | 172000 M⁻¹ s⁻¹ | Clone with H1_4-1 (antibody, V domains shown, based on hu1C7.v2) VH: EVQLLESGGGLVQPGGSLRLSCAASGFTFSGPGMSWVRQAPGKGLEWVASISGDGGSYIHYADSVKGRFTISRDNSKNTLYLQMNSLRAEDTAVYYCARLPYWGQGTLVTVSS VL: DIVMTQSPDSLAVSLGERATINCKSSQSLLNSGNQKNYLTWYQQKPGQPPKLLIYWASTRESGVPDRFSGSGSGTDFTLTISSLQAEDVAVYYCQQYNSYPLTFGQGTKVEIKR
19 | 8.28 nM | 0.00369 s⁻¹ | 446000 M⁻¹ s⁻¹ | Clone with H2_1 (antibody, V domains shown, based on hu1C7.v2) VH: EVQLLESGGGLVQPGGSLRLSCAASGFTFSSYGMSWVRQAPGKGLEWVASISGEGGSYIHYADSVKGRFTISRDNSKNTLYLQMNSLRAEDTAVYYCARLPYWGQGTLVTVSS VL: DIVMTQSPDSLAVSLGERATINCKSSQSLLNSGNQKNYLTWYQQKPGQPPKLLIYWASTRESGVPDRFSGSGSGTDFTLTISSLQAEDVAVYYCQQYNSYPLTFGQGTKVEIKR
